B1: monoclonal antibody 117.1 (antibody, V domains shown)
VH: QVTLKESGPGILQPSQTLSLTCSFSGFSLSTPGMGVGWIRQPSGKGLEWLAHIWWDDFKRDNPALKSRLTISKDTSSSQVFLKIASVDTADTATYYCVRVDGNFLSWYFDVWGAGTTVTVSS
VL: DAVMTQTPLSLPVSLGDQASISCRSSQSLVHSNGNTYLHWYLQKPGQSPKLLIYKVSNRFSGVPDRFSGSGSGTDFTLRISRVEAEDLGVYFCSQSRYVPWTFGGGTKLEIK
notes: Murine hybridoma antibody
B2: monoclonal antibody 368.1 (antibody, V domains shown)
VH: EVQLQQSGPELVRTGASVKISCKASGYSFTGFYMHWVKQSLGKSLEWIGYVSCYTGATTYTQKFKGKATFTVDTSSSTAYMQLNSLTSEDSAVYYCAREGDYYSMDFWGQGTSVTVSS
VL: DVVMTQTPLSLPVSLGDQASISCRSSQSLERTNGNTYLHWYLQKPGQSPKLLIYKVSSRFSGVPDRFSGSGSGTDFTLKISRVEAEDLGIYFCSQTTHGPPTCGGGTKLEIK
notes: Murine hybridoma antibody
B3: monoclonal antibody 501.1 (antibody, V domains shown)
VH: QIQLVQSGPELKKPGETVQISCKASGYIFTDYGMNWVKQAPGKGLKWMGCINTYTGETIYSDDFRGRFAISLETSASTAFIQINNLKNEDAATYFCARGNYRDAIDYWGQGTSVTVSS
VL: DIKMTQSPSSIYASLGERVTITCKASQDIKSYLSWYQQKPWKSPKTLIYYATTLADGVPSRFSGSGSGQDYSLIINSLESDDIATYFCLHHDESPFTFGSGTKLEI
notes: Murine hybridoma antibody

Molecular target: T1, O772P 3-repeat TM on transfected NIH/3T3 cells (human)
T1 construct: also called NIH/3T3 O772P 3-repeat
T1 chain: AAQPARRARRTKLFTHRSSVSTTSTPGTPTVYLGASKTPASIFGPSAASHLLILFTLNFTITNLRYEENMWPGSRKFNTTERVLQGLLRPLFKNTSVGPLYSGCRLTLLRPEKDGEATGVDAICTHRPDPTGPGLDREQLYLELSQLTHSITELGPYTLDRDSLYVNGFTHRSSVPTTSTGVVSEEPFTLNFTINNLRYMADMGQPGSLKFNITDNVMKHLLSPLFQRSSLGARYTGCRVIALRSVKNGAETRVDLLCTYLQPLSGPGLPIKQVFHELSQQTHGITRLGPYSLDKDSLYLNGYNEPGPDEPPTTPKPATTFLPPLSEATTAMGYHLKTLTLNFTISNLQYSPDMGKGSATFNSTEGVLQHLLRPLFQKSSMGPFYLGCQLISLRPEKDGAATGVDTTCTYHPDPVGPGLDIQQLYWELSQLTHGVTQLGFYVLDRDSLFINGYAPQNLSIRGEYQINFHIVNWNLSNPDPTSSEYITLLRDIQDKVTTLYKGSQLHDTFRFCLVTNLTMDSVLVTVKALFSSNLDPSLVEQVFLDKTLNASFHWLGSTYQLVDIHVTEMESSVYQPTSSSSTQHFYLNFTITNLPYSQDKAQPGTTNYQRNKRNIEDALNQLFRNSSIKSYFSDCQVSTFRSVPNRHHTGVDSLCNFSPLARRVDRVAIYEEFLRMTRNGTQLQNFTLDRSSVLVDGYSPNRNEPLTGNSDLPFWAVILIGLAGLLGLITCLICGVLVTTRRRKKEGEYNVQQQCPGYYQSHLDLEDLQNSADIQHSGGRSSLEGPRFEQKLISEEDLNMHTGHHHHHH
Assay: flow cytometry, NIH/3T3 cells expressing O772P 3-repeat TM; Ab 0.5 µg/ml
Description: Cells (OVCAR-3 (ATCC Accession No. HTB-161), SK-OV3 (ATCC Accession No. HTB-77), NIH/3T3 (ATCC Accession No. CRL-1658), and NIH/3T3 cells transfected with a sequence that expresses O772P 3-repeat protein (SEQ ID NO:2)) were removed from culture plates by digestion with trypsin (0.25%). The cells were counted and viability was assessed by trypan blue (0.2%) exclusion. Cells were then centrifuged (500×g, 5 min) and resuspended in FACS buffer (1×DPBS containing 1% BSA and 0.1% sodium azide) to a concentration between 5-10×10⁷ cells/ml. Cells were then distributed at a volume of 100 μL/well into 96-well round bottom plates and centrifuged at 500×g for 3 minutes. Antibody supernatant was removed by aspiration, and 50 μl hybridoma supernatants diluted to 1 μg/ml and 0.5 μg/μl in FACS buffer and was added to each well containing cells. Murine IgG1 kappa (Sigma, St. Louis, Mo.) (either 2.0, 1.0, 0.5, 0.1 μg/μl) was included as a negative control and OC125 and M11 (DAKO Corp, Carpinteria, Calif.) were included as positive controls. Plates were incubated for 30 minutes at 4° C. with rocking. Cells were subsequently washed 2 times with FACS buffer (200 μl/well), with centrifugation and buffer aspiration following each wash. Goat anti-mouse IgG (Fc)-biotin (Sigma, St. Louis, Mo.) was diluted 1:1000 in FACS buffer and 50 μl was added to each well containing cells. Plates were incubated 30 minutes at 4° C. with rocking. Cells were then washed with FACS buffer as above. Streptavidin-Alexa-Four 488 (Molecular Probes, Eugene, Oreg.) was diluted 1:1000 into FACS buffer and 50 μl was added to each well containing cells. Plates were then incubated 30 minutes at 4° C. with […]. Cells were then washed with FACS buffer, as above. Cells were then resuspended in 1 ml of FACS buffer and transferred to Falcon 2052 tubes and analyzed on a Becton-Dickinson Immunocytometry Systems FACSCalibur flow cytometer (San Jose, Calif.).

| Binder | % positive cells [%] |
| --- | --- |
| B1 | 63 |
| B2 | 75 |
| B3 | 85 |

Molecular target: T2, O772P 3-repeat recombinant protein (human)
T2 construct: Repeats are residues 14-452 of the entry
T2 chain: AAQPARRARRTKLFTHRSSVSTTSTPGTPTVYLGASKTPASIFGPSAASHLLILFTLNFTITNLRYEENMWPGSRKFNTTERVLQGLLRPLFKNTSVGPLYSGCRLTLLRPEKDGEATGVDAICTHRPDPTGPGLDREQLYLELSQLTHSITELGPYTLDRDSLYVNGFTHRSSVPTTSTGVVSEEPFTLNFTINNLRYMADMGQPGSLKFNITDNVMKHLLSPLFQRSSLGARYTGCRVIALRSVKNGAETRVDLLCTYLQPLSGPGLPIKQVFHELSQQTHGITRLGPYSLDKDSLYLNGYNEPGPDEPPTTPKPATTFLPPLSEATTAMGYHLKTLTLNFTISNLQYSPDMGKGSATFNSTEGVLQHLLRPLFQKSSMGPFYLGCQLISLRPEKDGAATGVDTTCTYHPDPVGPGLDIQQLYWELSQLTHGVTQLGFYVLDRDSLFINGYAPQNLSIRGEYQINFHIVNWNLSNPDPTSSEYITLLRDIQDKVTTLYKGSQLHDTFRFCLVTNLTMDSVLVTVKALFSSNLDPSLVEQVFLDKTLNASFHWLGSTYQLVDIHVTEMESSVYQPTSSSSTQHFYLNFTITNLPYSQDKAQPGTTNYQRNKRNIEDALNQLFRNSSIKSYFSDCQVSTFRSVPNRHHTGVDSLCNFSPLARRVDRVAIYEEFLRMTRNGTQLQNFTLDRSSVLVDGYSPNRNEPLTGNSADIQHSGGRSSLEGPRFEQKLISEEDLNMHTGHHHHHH
Assay: ELISA competition, plate-bound O772P 3-repeat; competitor soluble O772P 3-repeat
Description: On the next day, the plates were washed with 200 μl 1×PBST (1× phosphate-buffered saline (PBS), 0.05% Tween 20) three times and blocked with 100 μl of 1×PBST containing 1% bovine serum albumin (BSA) for 2 hours at 37° C. […] After 1 hour incubation at 37° C., the plates were then washed with 1×PBST three times. For signal detection, 100 μl of HRP-conjugated sheep anti-mouse IgG (1:2000 dilution into 1×PBST+1% BSA, Amersham Biosciences) was added to each well and incubated for 1 hour at 37° C. The plates were washed again with 1×PBST three times. Finally, 100 μl¹ of a mixture of TMB substrate and H₂O₂ (1:1 ratio, KPL) was added into each well and the absorbance was measured at 405 nm with a plate reader (Molecular Devices Corp., Sunnyvale, Calif.). The assay was done in triplicate for each selected antibody and average values were calculated and presented. The percent inhibition compared to no competition was calculated for individual antibodies based on average values. Controls for blank and individual reagents were also included in each experiment.

| Binder | absorbance w/O772P 3-repeat competitor (10 x w/w excess) [OD] |
| --- | --- |
| B1 | 0.071 |
| B2 | 0.915 |
| B3 | 0.065 |
